Numbering of substitutions follows the chain as printed.

Data set [1] addresses Human DLL3 expressed on cells (HEK293T-hDLL3, NCI-H82, SHP-77, MC38-hDLL3) (human) (UniProt Q9NYJ7). In words: flow cytometry titration on HEK293T-hDLL3 cells, with HSA.
The target is the same in data set [2]. In words: flow cytometry titration on HEK293T-hDLL3 cells, without HSA. (In general: In flow cytometry, cells or beads pass a laser one at a time.)
The target in data set [3] is T1, Human DLL3 expressed on cells (HEK293T-hDLL3, NCI-H82, SHP-77, MC38-hDLL3) (human, UniProt Q9NYJ7 27-618).
T1 construct: also called DLL3 endogenously expressed on human cells
T1 sequence: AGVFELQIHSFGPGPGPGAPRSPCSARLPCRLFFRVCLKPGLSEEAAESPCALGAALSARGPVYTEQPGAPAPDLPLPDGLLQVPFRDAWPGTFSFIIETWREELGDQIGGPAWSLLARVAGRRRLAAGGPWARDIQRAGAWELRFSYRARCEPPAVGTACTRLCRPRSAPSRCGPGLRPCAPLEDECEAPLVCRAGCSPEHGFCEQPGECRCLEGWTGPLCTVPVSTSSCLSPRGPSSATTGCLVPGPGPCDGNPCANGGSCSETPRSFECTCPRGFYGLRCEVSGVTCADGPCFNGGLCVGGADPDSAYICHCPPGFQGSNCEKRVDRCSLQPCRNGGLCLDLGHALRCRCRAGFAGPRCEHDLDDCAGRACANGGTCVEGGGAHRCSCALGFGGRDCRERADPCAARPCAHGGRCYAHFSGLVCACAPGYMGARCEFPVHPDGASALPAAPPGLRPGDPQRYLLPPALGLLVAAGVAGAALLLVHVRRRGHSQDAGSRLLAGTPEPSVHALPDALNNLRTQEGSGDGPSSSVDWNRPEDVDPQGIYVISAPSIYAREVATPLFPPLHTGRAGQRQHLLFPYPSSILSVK
Description: flow cytometry titration on HEK293T-hDLL3 cells, with HSA. As for the experimental part: (§1) Cell binding titration assays were performed for selected His-tagged single domain (1 D) and two domain (2D) designed ankyrin repeat proteins to determine binding to human DLL3 expressed on HEK293T-huDLL3 cells in absence and presence of human serum albumin. […] HEK293T-hDLL3 cells are HEK293T cells that were stably transfected to express human DLL3 on their surface.
(§2) In brief, 1×10⁵ cells/well were resuspended in 100 μl DARPin dilution (500 nM, 1:5 serial diluted) and incubated for 1 h at 4° C. Cells were washed twice with PBS and resuspended in 100 μl anti-DARPin antibody (rabbit anti-DARPin 1.4.8) and LIVE/DEAD fixable cell stain (1:1000, Thermo Fisher #L34957). This step was performed in absence and presence of 10 pM Human Serum Albumin (CSL Behring #150570). After incubation and washing, cells were incubated with detection antibody for 30 minutes (Goat […] IgG (H+L), AF647, Thermo Fisher #21445). Cells were fixed (Paraformaldehyde Solution, LucernaChem) and acquired at Attune N×T (Thermo Life Technologies). Raw fcs files were exported and analyzed using FlowJo software. MFI values of live AF647-positive cells were exported from FlowJo and plotted using GraphPad Prism software.

Data set [4] has as its target T1, Human DLL3 expressed on cells …. Description: flow cytometry titration on HEK293T-hDLL3 cells, without HSA. As for the experimental part: as §1, §2
Data set [5] has the same target. Description: flow cytometry titration on NCI-H82 cells (endogenous DLL3), without HSA. The method, then: (§3) Furthermore, cell binding titration assays were also performed with selected two domain (2D) designed ankyrin repeat proteins to determine binding to human cells expressing DLL3 endogenously, in absence and presence of human serum albumin. For this purpose, NCI-H82 cells were used, a human lung carcinoma cell line which endogenously expresses DLL3 on the surface. […] A non-binding DARPin comprising SEQ ID NO: 22 was used as a negative control.
as §2, with “diluted in PBS, 2% FBS)” for “diluted)”, “C. This step was performed in absence and presence of 10 μM Human Serum Albumine (CSL Behring #150570).” for “C.”, “PBS, 2% FBS” for “PBS”, “LIVE/DEAD” for “LIVE/DEAD fixable”, “Biolegend #423106).” for “Thermo Fisher #L34957). This step was performed in absence and presence of 10 pM Human Serum Albumin (CSL Behring #150570).”, “Solution, TCL119,” for “Solution,”

Data set [6] shares this target. Description: flow cytometry titration on NCI-H82 cells (endogenous DLL3), with 10 uM HSA. The method, then: as §3
as §2, with “diluted in PBS, 2% FBS)” for “diluted)”, “C. This step was performed in absence and presence of 10 μM Human Serum Albumine (CSL Behring #150570).” for “C.”, “PBS, 2% FBS” for “PBS”, “LIVE/DEAD” for “LIVE/DEAD fixable”, “Biolegend #423106).” for “Thermo Fisher #L34957). This step was performed in absence and presence of 10 pM Human Serum Albumin (CSL Behring #150570).”, “Solution, TCL119,” for “Solution,”

Data set [7] deals with T2, human serum albumin (human, UniProt P02768 25-609).
T2 construct: also called HSA
In words: SPR (Bruker Sierra SPR-32), HSA on chip, DARPin as analyte, 1:1 Langmuir fit. As for the experimental part: (§4) Similarly, a SPR assay was used to determine the binding kinetics to human or mouse serum albumin. […] All analytes (3-fold dilution ranging from 1000-12.35 nM) were injected in succession for 240 s (25 μl/min) and dissociation was recorded for 600 s (25 μl/min).

Data set [8] concerns the target T3, mouse serum albumin (mouse, UniProt P07724 25-608).
T3 construct: also called MSA
Description: SPR (Bruker Sierra SPR-32), MSA on chip, DARPin as analyte, 1:1 Langmuir fit. As for the experimental part: as §4

The target of data set [9] is T4, hDLL3 ECD-Avi-Fckih (biotinylated extracellular domain of human DLL3, residues 27 to 466, Avi-tag, 3C site, … (human, UniProt Q9NYJ7 27-466, biotinylated at the Avi-tag)).
T4 construct: The make-up of the second Fc chain of the knob-into-hole pair is not described; also called bio-DLL3; recombinant human DLL3; not shown: Avi-tag, 3C protease recognition site and Fc knob into hole
T4 sequence: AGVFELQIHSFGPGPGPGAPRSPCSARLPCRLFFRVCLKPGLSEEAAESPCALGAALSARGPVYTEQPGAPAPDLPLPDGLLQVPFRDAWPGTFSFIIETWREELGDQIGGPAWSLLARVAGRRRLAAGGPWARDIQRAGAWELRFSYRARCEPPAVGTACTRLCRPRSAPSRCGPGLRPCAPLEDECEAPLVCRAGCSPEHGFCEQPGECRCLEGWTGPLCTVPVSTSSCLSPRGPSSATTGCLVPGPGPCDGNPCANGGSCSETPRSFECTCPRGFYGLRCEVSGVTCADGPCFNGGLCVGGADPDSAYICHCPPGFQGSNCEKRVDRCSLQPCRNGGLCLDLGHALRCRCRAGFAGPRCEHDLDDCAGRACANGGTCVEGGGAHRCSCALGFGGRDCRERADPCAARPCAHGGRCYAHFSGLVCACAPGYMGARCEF
Description: SPR (ProteOn), biotinylated hDLL3 ECD-Avi-Fckih on chip, DARPin as analyte, 1:1 Langmuir fit. As for the experimental part:
Kinetic binding parameters and binding affinities of two domain (2D) ankyrin repeat proteins comprising an ankyrin repeat domain with binding specificity for DLL3 and an ankyrin repeat domain with binding specificity for serum albumin were determined by surface plasmon resonance (SPR) multi-trace analysis.
In brief, a SPR assay was used to determine the binding kinetics to the target human DLL3. The data were generated using BioRad ProteOn instrument in SPR running buffer (PBS, pH 7.4 containing 0.005% Tween 20®). […] The chip was coated with biotinylated target (bio-DLL3) to reach a signal intensity of 1780 RU. […] Each injection was followed by a regeneration step with 16 mM H₃PO₄ for 18 s. […] The bio-DLL3 target used was as described in U.S. 63/550,951, i.e. the extracellular domain (ECD) of human DLL3 protein (Q9NYJ7, Gene ID: 10683, residues 27 to 466; purchased from Evitria) linked via an Avi-tag (for site-directed biotinylation), followed by a 3C protease recognition site, to a Fc knob into hole (hDLL3 ECD-Avi-Fcₖᵢₕ).

The target of data set [10] is T5, mouse serum albumin (Mus musculus, UniProt P07724).
T5 construct: purchased Sigma-Aldrich
Description: SPR binding of 2D DARPins with different HSA binders to mouse serum albumin (Example 3). The following applies: immobilized MSA, Cysteine capped with IAM, 1:1 Langmuir, Table 12. (Surface plasmon resonance follows binding to a sensor surface in real time, without labels.)

In data set [11] the target is human serum albumin (Homo sapiens, UniProt P02768).

T3 sequence (P07724 25-608 limits assumed): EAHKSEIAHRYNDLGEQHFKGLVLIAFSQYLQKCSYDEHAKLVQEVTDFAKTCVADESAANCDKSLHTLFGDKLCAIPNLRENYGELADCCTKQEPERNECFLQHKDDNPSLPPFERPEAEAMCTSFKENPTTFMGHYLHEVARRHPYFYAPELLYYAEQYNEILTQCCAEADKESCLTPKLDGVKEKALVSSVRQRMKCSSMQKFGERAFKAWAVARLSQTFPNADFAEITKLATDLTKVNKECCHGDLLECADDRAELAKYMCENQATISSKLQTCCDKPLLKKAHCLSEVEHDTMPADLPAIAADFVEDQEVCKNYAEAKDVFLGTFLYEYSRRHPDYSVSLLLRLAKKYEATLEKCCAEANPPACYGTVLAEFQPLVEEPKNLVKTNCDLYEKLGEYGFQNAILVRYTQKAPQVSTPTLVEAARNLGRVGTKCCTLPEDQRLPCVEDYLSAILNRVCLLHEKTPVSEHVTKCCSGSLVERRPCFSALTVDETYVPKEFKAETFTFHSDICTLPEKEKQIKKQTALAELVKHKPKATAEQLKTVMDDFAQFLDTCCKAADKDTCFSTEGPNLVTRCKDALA
T5 sequence (P07724 25-608): as the sequence (P07724 25-608 limits assumed) above

As to Rova antibody, the values for the EC50 in data set [1] and in [2] were 0.3 nM and 0.1 nM, respectively.

B1: MAM282 (two domain ankyrin repeat protein, N-terminal His6-TEV tag) (designed binder)
chain: MRGSHHHHHHENLYFQDLGKKLLEAARAGQDDEVRELLKAGADVNAKDYFSHTPLHLAARNGHLKIVEVLLKAGADVNAKDFAGKTPLHLAADAGHLEIVEVLLKAGADVNAQDIFGKTPADIAADAGHEDIAEVLQKAAGSPTPTPTTPTPTPTTPTPTPTGSDLGKKLLAAAREGQDDEVRELLKAGADVNAKDIWGQTPLHIAAWFGHLEIVEVLLKAGADVNAKDQTGHTPLHLAAKFGHLEIVEVLLKAGADVNAQDLLGRTPADLAAEEGHEDIAEVLQKAA
notes: also called 2D DARPin
For B1, the EC50 (as a rule, the concentration at which the effect is half-maximal) turned out to be 19.6 nM in [3], 21.2 nM in [4], 2.6 nM in data set [5] and 2.6 nM in data set [6]. The Kd (usually the free concentration of one partner at which half of the binding sites on the other are occupied at equilibrium, for simple one-to-one binding) in data set [7] came out at 74.3 nM; in data set [8], 335 nM; in data set [9] it was 3.03 nM. Besides, the values for the koff in [7], in data set [8] and in data set [9] were 0.00889 s⁻¹, 0.0354 s⁻¹ and 3.79e-05 s⁻¹, respectively. Besides, the association rate constant (kon) (commonly a measure of how fast the partners come together) in [7] came out at 120000 M⁻¹ s⁻¹; in [8] it was 106000 M⁻¹ s⁻¹; in data set [9] it was 12500 M⁻¹ s⁻¹.

B2: High HSA affinity 2D DARPin: MAM160 with a GS at the N-terminus and a Cysteine-containing tag at the C-terminus (protein)
chain: GSDLGKKLLEAARAGQDDEVRELLKAGADVNAKDYFSHTPLHLAARNGHLKIVEVLLKAGADVNAKDFAGKTPLHLAADAGHLEIVEVLLKAGADVNAQDIFGKTPADIAADAGHEDIAEVLQKAAGSPTPTPTTPTPTPTTPTPTPTGSDLGTKLLSAAADGQDDEVRELLQAGADVNAKDLFGYTPLHLAAWRGHLEIVEVLLEAGADVNAKDAAGLTPLHLAAWFGHLEIVEVLLEAGADVNAQDVQGVTPADLAAKEGHEDIAEVLQQAAGSGSC
modifications: Ankyrin repeat protein with tag (GS-MAM160-tag)
Regarding B2, in data set [10], the “Koff MSA” value is 0.0345 s⁻¹ and the “Kon MSA” value came out at 133000 M⁻¹ s⁻¹. In addition, in data set [11], the “Koff HSA” value turned out to be 0.0311 s⁻¹ and the “Kon HSA” value came out at 105000 M⁻¹ s⁻¹. The “fold higher binding affinity to HSA than the Low HSA affinity 2D DARPin” value in data set [11] (SPR KD comparison) is on record as “about 10 fold”.

B3: MAM283 (two domain ankyrin repeat protein, N-terminal His6-TEV tag) (designed binder)
chain: MRGSHHHHHHENLYFQDLGKKLLEAARAGQDDEVRELLKAGADVNAKDYFSHTPLHLAARNGHLKIVEVLLKAGADVNAKDFAGKTPLHLAADAGHLEIVEVLLKAGADVNAQDIFGKTPADIAADAGHEDIAEVLQKAAGSPTPTPTTPTPTPTTPTPTPTGSDLGKKLLAAAADGQDDEVRELLQAGADVNAKDLFGYTPLHLAAWRGHLEIVEVLLEAGADVNAKDAAGETPLHLAAWFGHLEIVEVLLEAGADVNAQDVQGKTPADLAAKEGHEDIAEVLQQAA
notes: also called 2D DARPin
B3: the EC50 in data set [3] turned out to be 18.4 nM; in [4], 22.1 nM; in data set [5] it was 5.4 nM; in data set [6] it was 8.1 nM. For the same molecule, the Kd in data set [7] was 103 nM; in data set [8], 507 nM; in data set [9] it was 0.953 nM. The off-rate constant (koff) (as a rule, the rate constant with which the complex falls apart) in data set [7] amounted to 0.00924 s⁻¹; in data set [8] it was 0.0378 s⁻¹; in data set [9], 1.79e-05 s⁻¹. Moreover, the kon in data set [7] was 89500 M⁻¹ s⁻¹; in [8], 74700 M⁻¹ s⁻¹; in data set [9], 18800 M⁻¹ s⁻¹.

B4: MAM279 (two domain ankyrin repeat protein, N-terminal His6-TEV tag) (designed binder)
chain: B3 chain with D176Q, Q187K, D191N, E220K, E253K, V263L, Q286K
notes: Cleavage of the tag is not reported; also called 2D DARPin
Regarding B4, the EC50 was 16.3 nM in data set [3], 14.9 nM in [4], 2.5 nM in data set [5] and 2.1 nM in [6]. The Kd in data set [7] is 75 nM; in data set [8], 367 nM; in [9], 0.616 nM. In addition, the koff amounted to 0.00923 s⁻¹ in [7], 0.0335 s⁻¹ in data set [8] and 1.44e-05 s⁻¹ in data set [9]. The figures for the kon in data set [7], in data set [8] and in [9] were 123000 M⁻¹ s⁻¹, 91200 M⁻¹ s⁻¹ and 23300 M⁻¹ s⁻¹, respectively.

Source of the values: US20250332297A1, “DLL3-SPECIFIC BINDING CONSTRUCTS AND THEIR USE IN RADIOTHERAPY” (MOLECULAR PARTNERS AG, priority 2024, published 2025).
